In paper PMC4213368, “Elucidation of a protein-protein interaction network involved in Corynebacterium glutamicum cell wall biosynthesis as determined by bacterial two-hybrid analysis” (Glycoconjugate Journal, 2014):
Values joined by “and” are separate entries in the source; they are usually repeats but may differ in a detail not shown here. Equal values may be shown once. Each block holds one molecule with its values, some of them ahead of it.

Legend:
Assay in all cases: two-hybrid; BACTH in E. coli BTH101, same co-transformants; β-galactosidase activity in Miller units, mean of 3 independent assays; negative control with empty vectors 86 ± 11 Miller units
[1] = molecular target: DprE2 (Corynebacterium glutamicum ATCC 13032)
[2] = molecular target: AftA (Corynebacterium glutamicum ATCC 13032) (UniProt Q8NTW4)
[3] = molecular target: AftB (Corynebacterium glutamicum ATCC 13032) (UniProt Q8NLR0)
[4] = molecular target: AftC (Corynebacterium glutamicum ATCC 13032) (UniProt Q8NPB7)
[5] = molecular target: UbiA (Corynebacterium glutamicum ATCC 13032)
[6] = molecular target: WecA (Corynebacterium glutamicum ATCC 13032)
[7] = molecular target: Emb (Corynebacterium glutamicum ATCC 13032)
[8] = molecular target: the molecule itself

B1: AftC (enzyme, Corynebacterium glutamicum ATCC 13032, UniProt Q8NPB7 1-418, looked up)
chain: MSFSPVAPSISAPTPRRSRWDSIGNAVAWPLAMLLMAHRFFVLAINGAVTDDFTTVYSALRRFVEGIPVYNEVYHFVDPHYLYNPGATLLLAPLGYITHFTLARWMFIAVNLLAIVLAFGLLTRLSGWALRSMVWPIAIALAMLTETVQNTLIFSNINGILLLMLAIFLWCVVHKKSWLGGLVIGLAILIKPMFLPLLFLPLVKKQWGSLILGILTPVIFNAVAWFLVPGASEYVTRTMPYLGETRDFANSSLPGLAIYFGMPTWMEITWFLIFGAMVGLAVLALLRFRNTEPYFWAATTTGVLLTGVFFLSSLGQMYYSMMIFPMIFTLLGSRSVFHNWVAWVAAYFFLSPDTFTSQRLPDVARWMEFFSATVGWGLLIVVTFVSALIWFIGDIRAKGTPSSPITTDPTHDHLERTA
notes: AftC, arabinofuranosyltransferase, transmembrane, Corynebacterium glutamicum ATCC 13032; gene amplified from genomic DNA; One molecule for all four fusion forms; also called arabinofuranosyltransferase AftC; AftC-T25^C; source: E. coli BTH101, bacterial two-hybrid (BACTH) fusion; not shown: T25 or T18 fragment of Bordetella pertussis adenylate cyclase, N-terminal or C-terminal (each tested), kept
β-galactosidase activity [8]: 398 Miller units

B2: AftA (enzyme, Corynebacterium glutamicum ATCC 13032, UniProt Q8NTW4 1-661, looked up)
chain: MNPYGPSRVPEGEVYRPDRLNRKATLVAIVGAAILAFAFALVLWMGLKQTNLPAFGPSNVTRAVASATIAAVLIVTGFLTWLWLRDEHQSNPRWELEDVKPRPKWRTALTYLASYLSPAALVVAVLAIPLSATRLYLDGISVDQGFRTQFLTRMADDIGLSDMNYIDMPTFYPAGWFWLGGRLANLLGLPGWEAFQPWAIVSMAVAASVLVPVWQRITGSLPVATGIALVTTCIILAMNSEEPYAAIVAMGIPAMLVLASRIAKGDKFALAGGIIYLGVSATFYTLFTGAIALSAVAVCIVVAAIVQRSIKPLLWLAVLGGGSIVIALISWGPYLLASINGAERSGDSATHYLPLEGTQFPVPFLASSVVGLLCLVGLIYLVVRFHNNEVRAMWVGIAVFYAWMGMSMAITLLGNTLLGFRLDTVLVLIFATAGVLGIADFRLASVYQLYPTQITERTATHLTNLIVVLVLLGGLYYAQDLPQKNARAIDLAYTDTDGYGERADLYPAGAARYYKDINDHLLDQGFEPSETVVLTDELDFMSYYPYRGYQAFTSHYANPLGEFGNRNAFIEDLAIRSWDELADPQQFSDALNTSPWTIPEVFIFRGSIDDPDAGWKYDVAEDLYPNNPNVRFRGVYFNPESFDQMWQTKQVGPFVVVTHNE
notes: AftA, arabinofuranosyltransferase, transmembrane, Corynebacterium glutamicum ATCC 13032; gene amplified from genomic DNA; One molecule for all four fusion forms; also called arabinofuranosyltransferase AftA; AftA-T25^N; source: E. coli BTH101, bacterial two-hybrid (BACTH) fusion; not shown: T25 or T18 fragment of Bordetella pertussis adenylate cyclase, N-terminal or C-terminal (each tested), kept
β-galactosidase activity [8]: 714 Miller units

B3: AftB (enzyme, Corynebacterium glutamicum ATCC 13032, UniProt Q8NLR0 1-686, looked up)
chain: MTFSPQRPEFETGKQPDPETEHAGDFFEETSSSAPRAASNGSSGPNYTLITTFLAALTAGIFAFWAGWTRKWISDDGLIVLRTVRNLLAGNGPVFNAGERVEANTSTLWQYCIYLVALVTDYRLEDIALWLALLFTTAASIIGVLGTAHLHRKRIAVLLPAGVIGYFSLSPARDFATSGLEWGLSLMWISIQWLLLVLWATSGKTSGKKASGAKTSNPIVNAGAITYALAFWSGLSWLVRPELAMYGGLTGVLLLLTAPRWRVVLGILVAALPLPAAYQIFRMGYYGLMVPHTAVAKSASDAVWGTGWEYVEDFTGPYNLWLGLALLLAAGALTVWKTDKHLAIPKGRLGLRTPGMAIALLVICALVHFLYVIRVGGDFMHGRMLLLPLFAILLPVSVIPVNVVDRGWQDLVALVLVFSTWVWSTVVFVQGHQWENTGQHVVDERDFWIDFTNRDEDHPPLYAEDFLTVDSMNDYAEVMRDQTLVNPTGQQLNILASSDPTTYSWITTPRVEGVEAGDLANLSPTVFHVNLGMTSMNAPLNVRVTDLIGLATPLAARQPRIEGGRIGHDKLMDLEWQVAESATPLAYTPGWLDTQKTYEARQALRHPELVHLFQTYREPMSYHRFVDNIKYALTTGRTLEISDNPEDLLKEFNPTPAEIQDGLETIAWPGEIKLDEPRGEPLYSSQ
notes: AftB, arabinofuranosyltransferase, transmembrane, Corynebacterium glutamicum ATCC 13032; gene amplified from genomic DNA; One molecule for all four fusion forms; also called arabinofuranosyltransferase AftB; AftB-T25^N; source: E. coli BTH101, bacterial two-hybrid (BACTH) fusion; not shown: T25 or T18 fragment of Bordetella pertussis adenylate cyclase, N-terminal or C-terminal (each tested), kept
β-galactosidase activity [8]: 1180 Miller units

More lines, now with the values ahead:

β-galactosidase activity [1]: 637 Miller units and 1030 Miller units
Molecule: DprE1 (enzyme)

β-galactosidase activity [2]: 387 Miller units
β-galactosidase activity [3]: 1020 Miller units
β-galactosidase activity [4]: 755 Miller units
Molecule: UbiA (enzyme)

β-galactosidase activity [5]: 1090 Miller units and 1200 Miller units
Molecule: WbbL (enzyme)

β-galactosidase activity [6]: 487 Miller units
β-galactosidase activity [5]: 1020 Miller units
β-galactosidase activity [7]: 1350 Miller units
β-galactosidase activity [3]: 1080 Miller units
β-galactosidase activity [4]: 1050 Miller units
Molecule: WecA (enzyme)
